In patent US20050118674A1, “Engineering of Controlled Deamidation Rates in Peptides, Proteins, and Similar Structures” (priority 2003, published 2005):

Test: First-order nonenzymatic deamidation of pentapeptides in Tris buffer
Format: physicochemical
Conditions: pH 7.4, 37.0° C., 0.15 M Tris HCl; Asn pentapeptides
How it was run: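 Pentapeptides containing Asn or Gln in varied flanking sequences incubated at 37° C., pH 7.4, 0.15 M Tris buffer; first-order deamidation rates measured. Some Asn values estimated from remaining data; many Gln values derived from surface fitting rather than measured.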

Substance	First-Order Deamidation Halftimes of GlyXxxAsnYyyGly [days]
GlyIleAsnAlaGly (GINAG; printed: GlyIleAsnAlaGly)	25.9
GlyIleAsnAmCysGly	33.0
GlyIleAsnArgGly (GINRG; printed: GlyIleAsnArgGly)	66.4
GlyIleAsnAspGly (GINDG; printed: GlyIleAsnAspGly)	33.8
GlyIleAsnCysGly (GINCG; printed: GlyIleAsnCysGly)	52.7
GlyIleAsnGluGly (GINEG; printed: GlyIleAsnGluGly)	58.6
GlyIleAsnGlyGly (GINGG; printed: GlyIleAsnGlyGly)	1.26
GlyIleAsnHisGly (GINHG; printed: GlyIleAsnHisGly)	11.5
GlyIleAsnIleGly (GINIG; printed: GlyIleAsnIleGly)	384
GlyIleAsnLeuGly (GINLG; printed: GlyIleAsnLeuGly)	154
GlyIleAsnLysGly (GINKG; printed: GlyIleAsnLysGly)	64.4
GlyIleAsnMetGly (GINMG; printed: GlyIleAsnMetGly)	58.8
GlyIleAsnPheGly (GINFG; printed: GlyIleAsnPheGly)	61.5
GlyIleAsnProGly (GINPG; printed: GlyIleAsnProGly)	11600
GlyIleAsnSerGly (GINSG; printed: GlyIleAsnSerGly)	14.5
GlyIleAsnThrGly (GINTG; printed: GlyIleAsnThrGly)	46.3
GlyIleAsnTrpGly (GINWG; printed: GlyIleAsnTrpGly)	86.7
GlyIleAsnTyrGly (GINYG; printed: GlyIleAsnTyrGly)	79.3
GlyIleAsnValGly (GINVG; printed: GlyIleAsnValGly)	295

Substance	First-Order Deamidation Halftimes of GlyXxxAsnYyyGly [days]
GlyLeuAsnAlaGly (GLNAG; printed: GlyLeuAsnAlaGly)	25.1
GlyLeuAsnAmCysGly	33.6
GlyLeuAsnArgGly (GLNRG; printed: GlyLeuAsnArgGly)	62.1
GlyLeuAsnAspGly (GLNDG; printed: GlyLeuAsnAspGly)	32.1
GlyLeuAsnCysGly (GLNCG; printed: GlyLeuAsnCysGly)	53.5
GlyLeuAsnGluGly (GLNEG; printed: GlyLeuAsnGluGly)	56.7
GlyLeuAsnGlyGly (GLNGG; printed: GlyLeuAsnGlyGly)	1.08
GlyLeuAsnHisGly (GLNHG; printed: GlyLeuAsnHisGly)	10.7
GlyLeuAsnIleGly (GLNIG; printed: GlyLeuAsnIleGly)	391
GlyLeuAsnLeuGly (GLNLG; printed: GlyLeuAsnLeuGly)	155
GlyLeuAsnLysGly (GLNKG; printed: GlyLeuAsnLysGly)	60.1
GlyLeuAsnMetGly (GLNMG; printed: GlyLeuAsnMetGly)	62.6
GlyLeuAsnPheGly (GLNFG; printed: GlyLeuAsnPheGly)	72.4
GlyLeuAsnProGly (GLNPG; printed: GlyLeuAsnProGly)	10500
GlyLeuAsnSerGly (GLNSG; printed: GlyLeuAsnSerGly)	16.7
GlyLeuAsnThrGly (GLNTG; printed: GlyLeuAsnThrGly)	46.1
GlyLeuAsnTrpGly (GLNWG; printed: GlyLeuAsnTrpGly)	74.5
GlyLeuAsnTyrGly (GLNYG; printed: GlyLeuAsnTyrGly)	75.7
GlyLeuAsnValGly (GLNVG; printed: GlyLeuAsnValGly)	294

Same assay, conditions: pH 7.4, 37.0 ° C., 0.15 M Tris HCl; Gln pentapeptides; 52 values measured, rest derived from surface fitting

Substance	First-Order Deamidation Halftimes of GlyXxxGlnYyyGly [days]
GlyHisGlnAlaGly (GHQAG; printed: GlyHisGlnAlaGly)	7200
GlyHisGlnArgGly (GHQRG; printed: GlyHisGlnArgGly)	4500
GlyHisGlnAspGly (GHQDG; printed: GlyHisGlnAspGly)	5600
GlyHisGlnCysGly (GHQCG; printed: GlyHisGlnCysGly)	2200
GlyHisGlnGluGly (GHQEG; printed: GlyHisGlnGluGly)	5800
GlyHisGlnGlyGly (GHQGG; printed: GlyHisGlnGlyGly)	850
GlyHisGlnHisGly (GHQHG; printed: GlyHisGlnHisGly)	7200
GlyHisGlnIleGly (GHQIG; printed: GlyHisGlnIleGly)	6700
GlyHisGlnLeuGly (GHQLG; printed: GlyHisGlnLeuGly)	6600
GlyHisGlnLysGly (GHQKG; printed: GlyHisGlnLysGly)	4000
GlyHisGlnMetGly (GHQMG; printed: GlyHisGlnMetGly)	5200
GlyHisGlnPheGly (GHQFG; printed: GlyHisGlnPheGly)	8600
GlyHisGlnProGly (GHQPG; printed: GlyHisGlnProGly)	11000
GlyHisGlnSerGly (GHQSG; printed: GlyHisGlnSerGly)	6300
GlyHisGlnThrGly (GHQTG; printed: GlyHisGlnThrGly)	5500
GlyHisGlnTrpGly (GHQWG; printed: GlyHisGlnTrpGly)	18000
GlyHisGlnTyrGly (GHQYG; printed: GlyHisGlnTyrGly)	14000
GlyHisGlnValGly (GHQVG; printed: GlyHisGlnValGly)	6800
GlyIleGlnAlaGly (GIQAG; printed: GlyIleGlnAlaGly)	6200
GlyIleGlnArgGly (GIQRG; printed: GlyIleGlnArgGly)	7200
GlyIleGlnAspGly (GIQDG; printed: GlyIleGlnAspGly)	8100

Substance	First-Order Deamidation Halftimes of GlyXxxGlnYyyGly [days]
GlyIleGlnCysGly (GIQCG; printed: GlyIleGlnCysGly)	2000
GlyIleGlnGluGly (GIQEG; printed: GlyIleGlnGluGly)	7700
GlyIleGlnGlyGly (GIQGG; printed: GlyIleGlnGlyGly)	620
GlyIleGlnHisGly (GIQHG; printed: GlyIleGlnHisGly)	6100
GlyIleGlnIleGly (GIQIG; printed: GlyIleGlnIleGly)	6500
GlyIleGlnLeuGly (GIQLG; printed: GlyIleGlnLeuGly)	6300
GlyIleGlnLysGly (GIQKG; printed: GlyIleGlnLysGly)	6100
GlyIleGlnMetGly (GIQMG; printed: GlyIleGlnMetGly)	5100
GlyIleGlnPheGly (GIQFG; printed: GlyIleGlnPheGly)	8100
GlyIleGlnProGly (GIQPG; printed: GlyIleGlnProGly)	10000
GlyIleGlnSerGly (GIQSG; printed: GlyIleGlnSerGly)	5800
GlyIleGlnThrGly (GIQTG; printed: GlyIleGlnThrGly)	5300
GlyIleGlnTrpGly (GIQWG; printed: GlyIleGlnTrpGly)	16000
GlyIleGlnTyrGly (GIQYG; printed: GlyIleGlnTyrGly)	12000
GlyIleGlnValGly (GIQVG; printed: GlyIleGlnValGly)	7100
GlyLeuGlnAlaGly (GLQAG; printed: GlyLeuGlnAlaGly)	6000
GlyLeuGlnArgGly (GLQRG; printed: GlyLeuGlnArgGly)	7200
GlyLeuGlnAspGly (GLQDG; printed: GlyLeuGlnAspGly)	7800
GlyLeuGlnCysGly (GLQCG; printed: GlyLeuGlnCysGly)	2000
GlyLeuGlnGluGly (GLQEG; printed: GlyLeuGlnGluGly)	7400
GlyLeuGlnGlyGly (GLQGG; printed: GlyLeuGlnGlyGly)	670
